Values belong to the molecule of their own block, whether it stands above or below them. No end group written: not given here. ELP1‑120 = 120 ELP1 units (VPGXG) fused at the C-terminus
Assays:
[1] = Domschke 1978, Burhol 1978; cited from earlier work
[2] = target: T1, human Vasoactive Intestinal Peptide Receptor 2 (VPAC2) (Homo sapiens, UniProt P41587); test: cell-based cAMP bioassay in CHO cells expressing VPAC2; details: for activity compared with native VIP protein for VPAC2 receptor (cAMP produced): CHO cells expressing VPAC2, 30 minute incubation, FIG. 8, PB1047 DPP-IV treated before addition
T1 construct: expressed in transfected cells; host or cells: Chinese Hamster Ovary (CHO) cells
T1 sequence (P41587 24-438): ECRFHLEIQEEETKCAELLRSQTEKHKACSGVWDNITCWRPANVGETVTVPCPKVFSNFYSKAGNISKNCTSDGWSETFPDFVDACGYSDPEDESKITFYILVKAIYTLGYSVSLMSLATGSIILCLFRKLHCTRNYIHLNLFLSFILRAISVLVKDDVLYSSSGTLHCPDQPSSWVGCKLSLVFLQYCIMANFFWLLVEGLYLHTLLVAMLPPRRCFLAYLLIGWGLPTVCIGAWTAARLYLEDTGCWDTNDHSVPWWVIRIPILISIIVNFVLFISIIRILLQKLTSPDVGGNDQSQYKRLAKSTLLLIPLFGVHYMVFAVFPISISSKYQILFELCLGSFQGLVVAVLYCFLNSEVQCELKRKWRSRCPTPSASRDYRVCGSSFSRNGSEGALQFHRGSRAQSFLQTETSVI
Text: (§1) To measure the in vitro biological activity and potency of VIP or VIP-ELP fusion proteins, a cell-based bioassay was used. The assay measures the increase in intracellular cyclic adenosine monophosphate (cAMP) concentration in response to treatment with VIP or VIP-ELP fusion proteins in Chinese Hamster Ovary (CHO) cells that have been engineered to express either the human Vasoactive Intestinal Peptide Receptor 2 (VPAC2) or the human Vasoactive Intestinal Peptide Receptor 1 (VPAC1). […] Since the amount of cAMP accumulation in cells after receptor-mediated ligand binding and activation is directly proportional to the amount of intact peptide or fusion protein present, the assay can be used to determine bioactivity and relative potency.
In this example, the activity of VIP-ELP fusion proteins PB1046 and PB1047 was tested. Construct PB1046 contains VIP with a Met at the N-terminus and construct PB1047 contains VIP with Ala-Ala at its N-terminus. Both constructs have ELP (1-120) at their C-terminus. In the first experiment, the activity of the constructs was tested using CHO cells expressing the VIP receptor VPAC2. After 30 minute incubations of various concentrations of the fusion proteins with the cell, the cells were lysed and the amount of cAMP produced was measured using a commercial kit. PB1047 was DPP-IV treated prior to the addition to the cells.
FIG. 13 illustrates the activity of PB1120 for the VPAC2 receptor. Like the results seen for the VPAC1 receptor, PB1120 show slightly less activity (˜1.5 fold less) than the native VIP peptide for VPAC2. However, in contrast to the results seen with VPAC1. PB1046 was equipotent for VPAC2 as compared to the native peptide.

[3] = target: T2, human Vasoactive Intestinal Peptide Receptor 1 (VPAC1) (Homo sapiens, UniProt P32241); test: cell-based cAMP bioassay in CHO cells expressing VPAC1; details: for activity compared with native VIP protein for VPAC1 receptor (cAMP produced): CHO cells expressing VPAC1, 30 minute incubation, FIG. 9, PB1047 DPP-IV treated before addition; for fold less active than the native VIP peptide on the VPAC1 receptor: FIG. 12
T2 construct: expressed in transfected cells; host or cells: Chinese Hamster Ovary (CHO) cells
T2 sequence (P32241 31-457): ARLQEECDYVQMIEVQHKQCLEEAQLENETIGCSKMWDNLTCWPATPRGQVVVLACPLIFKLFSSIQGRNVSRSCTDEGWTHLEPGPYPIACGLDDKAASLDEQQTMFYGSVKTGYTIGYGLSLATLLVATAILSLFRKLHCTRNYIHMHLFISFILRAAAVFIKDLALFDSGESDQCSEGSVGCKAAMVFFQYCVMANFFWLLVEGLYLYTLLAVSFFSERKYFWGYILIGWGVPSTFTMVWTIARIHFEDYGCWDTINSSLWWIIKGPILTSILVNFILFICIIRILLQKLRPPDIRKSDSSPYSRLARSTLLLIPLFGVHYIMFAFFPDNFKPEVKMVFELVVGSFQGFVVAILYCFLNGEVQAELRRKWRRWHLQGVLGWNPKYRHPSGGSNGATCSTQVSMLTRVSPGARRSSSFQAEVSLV
Text: as §1
The activity of PB1046 and PB1047 was also tested using CHO cells expressing the VIP receptor VPAC1. After 30 minute incubations of various concentrations of the fusion proteins with CHO cells, cells were lysed and the amount of cAMP produced was measured using a commercial kit. PB1047 was DPP-IV treated prior to the addition to the cells.
The activity of the PB1120 fusion peptide was tested in vitro. The activity was tested using an assay utilizing CHO cells expressing VIP receptor (VPAC1) as described above in Example 3.

[4] = test system: Spontaneously hypertensive rats; test: blood pressure effect in spontaneously hypertensive rats; type: in vivo, rat; details: 10 mg/kg subcutaneous
Experimental: The activity of the modified VIP-ELP fusion protein PB1047 was also tested in vivo. Specifically, effects of VIP-ELP fusion protein on blood pressure were tested. Spontaneously hypertensive rats were treated subcutaneous with PB1047 (10 mg/kg) or buffer control and their blood pressures were measured at several points after administration of the fusion protein. Five animals were used for each group and the graphs show the average and the standard deviation.

DPP IV = DPP IV (Homo sapiens, UniProt P27487); test: DPP IV treatment of the fusion protein; type: biochemical; details: removal of both AA and HS from the N-terminus
Text: Plasmid pPB1064 was therefore constructed, where the N-terminus was changed to MAAHG, SEQ ID NO: 45, instead of MAAHS, SEQ ID NO: 46, because HG is more resistant to DPP IV than HS.

[5] = pharmacokinetic profile in monkeys after single SC injection; type: in vivo, monkey; details: single SC 3 mg/kg, to day 4
Experimental: In addition to the biological potency assays described above, the pharmacokinetic profile of the VIP-ELP fusion protein PB1120 was also examined. Monkeys were given single subcutaneous (SC) injections (dosed at 3 mg/kg) of PB1120 and plasma drug concentrations were measured daily over the course of one week. Three animals were used and the graphs show the average and the standard deviation.

rats = test: effects on systolic, diastolic and mean arterial blood pressure in rats; type: in vivo, rat; details: 9 hrs post-injection
Experimental: To measure the effects of the modified VIP-ELP fusion protein PB1120 on systolic, diastolic, and mean arterial blood pressure, rats were given single, subcutaneous injections of 0.1 mg/kg, 1 mg/kg, or 5 mg/kg of PB1120 and evaluated over 3-hr intervals. FIGS. 15A, 15B, and 15C show the average change in systolic, diastolic, and mean arterial pressure, respectively.

Chain of DPP IV (P27487 whole entry, species assumed, the tested form may be a part): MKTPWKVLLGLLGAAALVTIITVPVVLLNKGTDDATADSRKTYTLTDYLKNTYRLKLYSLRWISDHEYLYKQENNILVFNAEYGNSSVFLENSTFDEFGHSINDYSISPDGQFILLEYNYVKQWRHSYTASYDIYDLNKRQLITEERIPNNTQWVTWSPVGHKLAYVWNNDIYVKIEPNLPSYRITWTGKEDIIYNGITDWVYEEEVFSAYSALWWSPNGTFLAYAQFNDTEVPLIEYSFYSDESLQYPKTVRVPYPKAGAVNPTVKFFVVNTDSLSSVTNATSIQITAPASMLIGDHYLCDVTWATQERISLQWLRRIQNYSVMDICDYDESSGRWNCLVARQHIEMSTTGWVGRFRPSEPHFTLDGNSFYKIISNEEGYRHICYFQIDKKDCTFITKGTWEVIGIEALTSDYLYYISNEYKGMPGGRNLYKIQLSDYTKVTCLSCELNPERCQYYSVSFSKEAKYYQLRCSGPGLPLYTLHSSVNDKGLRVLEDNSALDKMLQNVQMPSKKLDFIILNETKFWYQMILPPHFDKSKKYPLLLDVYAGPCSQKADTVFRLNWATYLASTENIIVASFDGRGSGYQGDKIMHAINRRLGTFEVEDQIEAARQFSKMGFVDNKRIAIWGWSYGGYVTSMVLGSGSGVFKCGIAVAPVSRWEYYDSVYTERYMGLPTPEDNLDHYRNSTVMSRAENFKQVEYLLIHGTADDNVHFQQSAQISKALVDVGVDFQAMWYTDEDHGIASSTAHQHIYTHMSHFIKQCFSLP

Molecule: Vasoactive intestinal peptide [VIP]
half-life in blood [1]: less than 2 minutes

activity compared with native VIP protein for VPAC2 receptor (cAMP produced) [2]: less active
effect of DPP IV treatment on the peptide (DPP IV): inactivation of the peptide
Molecule: PB1047: VIP-ELP fusion with tripeptide MAA encoded at N-terminus (Ala-Ala after Met removal), ELP1-120 at C-terminus (SEQ ID 18) (MAAHSDAVFTDNYTRLRKQMAVKKYLNSILN-{ELP1‑120}; also: recombinant fusion with ELP1-120 at C-terminus)
activity compared with native VIP protein for VPAC1 receptor (cAMP produced) [3]: about the same as it was in the test for VPAC2 receptor
duration of blood pressure reduction post administration ([4]; systolic and diastolic): at least 12 hours
diastolic blood pressure ([4]; vs buffer control, FIG. 10): significantly reduced
systolic blood pressure ([4]; vs buffer control, FIG. 10): significantly reduced

potency for VPAC2 compared to the native peptide ([2]; FIG. 13): equipotent
activity compared with native VIP protein for VPAC1 receptor (cAMP produced) [3]: much less active than native VIP protein
fold less active than the native VIP peptide on the VPAC1 receptor [3]: approximately 11 fold
Molecule: PB1046: VIP-ELP fusion protein with Met at the N-terminus and ELP1-120 at the C-terminus (SEQ ID NO. 17; FIG. 1 SEQ ID NO: 14) (MHSDAVFTDNYTRLRKQMAVKKYLNSILN-{ELP1‑120}; also: recombinant VIP-ELP fusion)
activity compared with native VIP protein for VPAC2 receptor (cAMP produced) [2]: somewhat more active than native VIP protein
receptor selectivity VPAC2 over VPAC1 ([2]; comparison of FIG. 8 and FIG. 9): selectively activates VPAC2 receptor over VPAC1 receptor

fold less activity than the native VIP peptide for VPAC2 ([2]; FIG. 13): ~1.5 fold
fold less active than the native VIP peptide on the VPAC1 receptor [3]: approximately 1.4 fold
B1: PB1120: VIP-ELP1-120 fusion peptide encoded by pPB1120 (protein)
chain: HSDAVFTDNYTRLRKQMAVKKYLNSILNVPGVGVPGVGVPGGGVPGAGVPGVGVPGVGVPGVGVPGGGVPGAGVPGGGVPGVGVPGVGVPGGGVPGAGVPGVGVPGVGVPGVGVPGGGVPGAGVPGGGVPGVGVPGVGVPGGGVPGAGVPGVGVPGVGVPGVGVPGGGVPGAGVPGGGVPGVGVPGVGVPGGGVPGAGVPGVGVPGVGVPGVGVPGGGVPGAGVPGGGVPGVGVPGVGVPGGGVPGAGVPGVGVPGVGVPGVGVPGGGVPGAGVPGGGVPGVGVPGVGVPGGGVPGAGVPGVGVPGVGVPGVGVPGGGVPGAGVPGGGVPGVGVPGVGVPGGGVPGAGVPGVGVPGVGVPGVGVPGGGVPGAGVPGGGVPGVGVPGVGVPGGGVPGAGVPGVGVPGVGVPGVGVPGGGVPGAGVPGGGVPGVGVPGVGVPGGGVPGAGVPGVGVPGVGVPGVGVPGGGVPGAGVPGGGVPGVGVPGVGVPGGGVPGAGVPGVGVPGVGVPGVGVPGGGVPGAGVPGGGVPGVGVPGVGVPGGGVPGAGVPGVGVPGVGVPGVGVPGGGVPGAGVPGGGVPGVGVPGVGVPGGGVPGAGVPGVGVPGVGVPGVGVPGGGVPGAGVPGGGVPGWP
modifications: VIP ELP1-120
notes: VIP-ELP1-120 fusion peptide encoded by pPB1120
portion of initial dose remaining in the circulation [5]: More than half
diastolic pressure (rats; 1 mg/kg SC): significant reductions
mean arterial pressure (rats; 1 mg/kg SC): significant reductions
systolic pressure (rats; 1 mg/kg SC): significant reductions
diastolic pressure (rats; 5 mg/kg SC): significant reductions
mean arterial pressure (rats; 5 mg/kg SC): significant reductions
systolic pressure (rats; 5 mg/kg SC): significant reductions
